Experimental findings from patent US11981714B2, “CCR5 and CD4 siRNA-targeted phospholipid nanosomes therapeutics for treatment of HIV-1 and other diseases” (priority 2020, dated 2024) are described below.

The subject of this experiment is HIV-1 RF, NIH Cat #2804. The experiment is described as follows: Infectivity assay by BFUs on MAGI P4/R5 cells with and without lipofectamine (RNA-I-61). Format: cell-based. The following applies: naked (unencapsulated), Presence of Lipofectamine. On the procedure:
A knockdown study (RNA-I-61) of the 8 nanoencapsulated and the corresponding unencapsulated (naked) siRNA preparations along with two controls described in the previous experiments was performed using freshly reconstituted materials with HIV-1 RF, NIH Cat #2804, diluted to contain ˜100 Blue Focus forming Units (BFUs) per dose of inoculum. […] The objective of this experiment was to test a range of concentrations of the inhibitors to determine the ID50 for each preparation based on the siRNA content. Since the nanosomal materials were freshly reconstituted, they were recharacterized.
The reconstituted samples as well as the naked siRNA preparations were tested for virus infection inhibitory activity. The inhibition of infectivity was measured by counting the number of blue foci due to the induced β-galactosidase activity in the host MAGI P4/R5 cells by the infecting HIV. […] The number of BFUs for each treatment at various dilutions were used to calculate the % inhibition from the corresponding dilution for the Negative_siRNA samples. The inhibitor activity was also quantified by measuring the p24 antigen concentration in each of the wells.
Infectivity Assay by BFUs: The percent inhibitions obtained with various Nanosomal_siRNA formulations versus Negative_siRNA formulations in the presence of lipofectamine are listed in Table 12.
50% Inhibitory Dose (ID50) Values: The data from RNA quantification using gel analysis and the infectivity results were used to plot dose response curves and calculate the ID50 (a.k.a. Inhibitory Concentration that results in 50% inhibition, [IC50]) values.

B1: RANTES: CC chemokine, molecular weight 7,900, natural ligand of CCR5; unencapsulated in Table 13 (protein, UniProt P13501 24-91, looked up)
C-C motif chemokine 5: SPYSSDTTPCCFAYIARPLPRAHIKEYFYTSGKCSNPAVVFVTRKNRQVCANPEKKWVREYINSLEMS
In the case of B1, the “Inhibition of BFUs by Naked_siRNA vs Negative_siRNA” value (“Inhibition … vs Negative_siRNA” below) (Treatment Dilution 1) is 0%; the “Inhibition … vs Negative_siRNA” value (Treatment Dilution 5) is reported as 34%; the “Inhibition … vs Negative_siRNA” value (Treatment Dilution 15) is recorded as 18%; the “Inhibition … vs Negative_siRNA” value (Treatment Dilution 45) amounted to 0%; the “Inhibition … vs Negative_siRNA” value (Treatment Dilution 135) is recorded as 0%.
